Measurements: US20260265379A1 (IMCHECK THERAPEUTICS, published 2026)

What was measured:
[1] = biological target: T1, PD-L1 at the surface of transduced cells (UniProt Q9NZQ7 19-290, limits assumed); assay: flow cytometry, CHO-PD-L1 cells
T1 construct: whole, on cells; CHO-PD-L1 cells in flow cytometry, Raji-PD-L1 cells in the reporter assay; also called CHO-PD-L1; Raji-PD-L1

recombinant human BTN3A1 = biological target: T2, recombinant human BTN3A1 (human, UniProt O00481 30-254); assay: SPR
T2 construct: Soluble form of the antigen used in SPR; also called rhBTN3A1; recombinant BTN3A1 protein
T2 sequence (O00481 30-254 limits assumed): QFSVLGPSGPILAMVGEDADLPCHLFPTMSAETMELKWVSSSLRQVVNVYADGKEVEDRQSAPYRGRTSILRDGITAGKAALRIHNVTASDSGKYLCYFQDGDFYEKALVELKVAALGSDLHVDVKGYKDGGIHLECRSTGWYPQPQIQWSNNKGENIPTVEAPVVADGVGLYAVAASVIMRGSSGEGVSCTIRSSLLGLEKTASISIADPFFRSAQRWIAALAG

recombinant human PD-L1 = biological target: T3, recombinant human PD-L1 (human, UniProt Q9NZQ7 19-239, limits assumed); assay: SPR
T3 construct: Soluble antigen in SPR; also called rhPD-L1
T3 sequence (Q9NZQ7 19-239 limits assumed): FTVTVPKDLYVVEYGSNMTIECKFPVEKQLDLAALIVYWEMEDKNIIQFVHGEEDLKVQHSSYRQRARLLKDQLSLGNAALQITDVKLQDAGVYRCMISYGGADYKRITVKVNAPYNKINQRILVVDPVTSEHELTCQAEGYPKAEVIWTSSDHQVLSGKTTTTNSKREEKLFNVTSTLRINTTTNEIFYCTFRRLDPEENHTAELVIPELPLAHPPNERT

[2] = biological target: T4, BTN3A1 at the surface of HEK-BTN3A1 cells (human, UniProt O00481 30-513); assay: flow cytometry, HEK-BTN3A1 cells
T4 construct: HEK 293T BTN2A/BTN3A KO cells transduced with a BTN3A1 expressing vector
T4 sequence (O00481 30-513 limits assumed): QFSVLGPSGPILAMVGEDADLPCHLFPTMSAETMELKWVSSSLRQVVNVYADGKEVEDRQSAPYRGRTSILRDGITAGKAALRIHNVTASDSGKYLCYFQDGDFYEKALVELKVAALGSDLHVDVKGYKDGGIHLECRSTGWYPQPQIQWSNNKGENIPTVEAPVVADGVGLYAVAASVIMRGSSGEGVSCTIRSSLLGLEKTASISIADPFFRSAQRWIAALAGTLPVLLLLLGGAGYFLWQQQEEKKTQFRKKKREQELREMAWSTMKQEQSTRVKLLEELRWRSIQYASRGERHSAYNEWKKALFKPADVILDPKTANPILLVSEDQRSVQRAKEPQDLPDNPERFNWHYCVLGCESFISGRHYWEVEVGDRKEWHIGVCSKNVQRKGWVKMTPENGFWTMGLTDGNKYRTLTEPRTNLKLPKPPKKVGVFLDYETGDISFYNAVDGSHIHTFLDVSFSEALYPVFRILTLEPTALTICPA

[3] = biological target: T1, PD-L1 at the surface of transduced cells; assay: cell-based or functional assay

T1 sequence (Q9NZQ7 19-290 limits assumed): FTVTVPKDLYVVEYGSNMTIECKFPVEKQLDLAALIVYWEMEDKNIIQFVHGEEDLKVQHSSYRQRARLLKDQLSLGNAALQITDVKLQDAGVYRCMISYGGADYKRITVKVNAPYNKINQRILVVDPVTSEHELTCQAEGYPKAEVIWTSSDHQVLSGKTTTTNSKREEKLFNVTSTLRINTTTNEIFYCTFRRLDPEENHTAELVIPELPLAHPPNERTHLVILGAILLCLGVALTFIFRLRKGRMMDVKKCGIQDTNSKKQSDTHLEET

MFI at 10 nM [1]: 820000 MFI | MFI at 100 nM [1]: 984000 MFI | Kd (recombinant human BTN3A1): 0.076 nM | Kd (recombinant human PD-L1): 0.108 nM | MFI at 10 nM [2]: 344000 MFI | MFI at 100 nM [2]: 862000 MFI | Jurkat-PD-1 activation at 10 nM [3]: 5.8 fold-change to medium | Jurkat-PD-1 activation at 100 nM [3]: 7.4 fold-change to medium
B1: bsAb055 (bispecific antibody)
heavy 1: GGGGSGGGGSGGGGSGGGGSEVQLVESGGGLVQPGGSLRLSCAASGFTFSRYWMSWVRQAPGKGLEWVANIKQDGSEKYYVDSVKGRFTISRDNAKNSLYLQMNSLRAEDTAVYYCAREGGWFGELAFDYWGQGTLVTVSSGGGGSGGGGSGGGGSGGGGSEIVLTQSPGTLSLSPGERATLSCRASQRVSSSYLAWYQQKPGQAPRLLIYDASSRATGIPDRFSGSGSGTDFTLTISRLEPEDFAVYYCQQYGSLPWTFGQGTKVEIK
heavy 2: QVQLVQSGAEVKKPGASVKLSCKASGYIFTRYYMYWVKQRPGQGLEWIGEINPNNGGTKFNEKFKNRATLTVDKSISTAYMELSRLRSDDTAVYYCSREDDYDGTPFAMDYWGQGTLVTVSS
light: not shown
notes: one Fab arm anti-BTN3A, one scFv anti-PD-L1; not shown: CH2-CH3 (Fc); IgG1 CH1-hinge-CH2-CH3
